From patent US11091749B2, “Deimmunized lysostaphin and methods of use” (TRUSTEES OF DARTMOUTH COLLEGE, priority 2014, dated 2021)
Numbering of substitutions follows the chain as printed. Names may count otherwise.

How the values were obtained:
S. aureus cells [1] = experiment: Lytic assay using purified protein (SYTOX kinetic assay); type: cell-based, Staphylococcus aureus; conditions: for % WT Lytic Rate: biological duplicates; for % Wild-Type Activity: 200 ng purified enzyme
Experimental: (§1) S. aureus cells were grown either to mid-log or to saturation in tryptic soy broth (TSB) at 37° C. with shaking. The cells were harvested by centrifugation and washed once in phosphate buffered saline (PBS: 2.7 mM KCl, 1.5 mM KH2PO4, 8.9 mM Na2HPO4, 136.9 mM NaCl, pH 7.4). The assay was performed in 96-well, black, clear bottom plates from Greiner Bio-One (Monroe, N.C.). The final (250 μl) reaction was composed of 10 μl of P. pastoris culture supernatant, S. aureus cells at OD600=1.5, and 5 μM SYTOX Green (Thermo Fisher Scientific; Waltham, Mass.), all in PBS. Data were collected using SPECTRAMAX GEMINI Fluorescence Microplate Reader (Molecular Devices; Sunnyvale, Calif.) using an excitation/emission of 504/523 nm, and rates were determined from the slope of the steepest linear portion of the trace. Each assay was performed with 500 ng of commercially-sourced lysostaphin (ssLys) as an internal control.
The activity of purified lysostaphin variants was examined using the SYTOX kinetic assay as previously described in Chapter 2, Section 3.2.6. 200 ng of purified enzyme (instead of culture supernatant) was used in each reaction.

MRSA strain 3425-3 = experiment: MIC assay; type: cell-based, Staphylococcus aureus; conditions: biological duplicates
Experimental: (§2) The MICs of wild-type lysostaphin and its variants were determined by adding 2-fold serial dilutions of enzymes into wells of a polypropylene 96-well plate (Costar 3879) containing ˜40,000 S. aureus SA113 (or S. aureus 6445, 3425-1, 3425-3) cells in Muller Hinton broth (BD) supplemented with 2% NaCl and 0.1% bovine serum albumin, yielding a total volume of 100 μl. Plates were grown overnight at 37° C. with shaking at 900 rpm on an Orbit P4 orbital shaker (Labnet; Edison, N.J.). […] The assay was performed in triplicate for each enzyme.

S. aureus 3425-1 = experiment: MIC assay; type: cell-based, Staphylococcus aureus; conditions: biological duplicates
Experimental: as §2

S. aureus SA113 [2] = experiment: MIC assay; type: cell-based, Staphylococcus aureus; conditions: for MIC Strain SA113: biological duplicates; for MIC: S. aureus SA113, purified enzyme
Experimental: as §2

S. aureus 6445 = experiment: MIC assay; type: cell-based, Staphylococcus aureus; conditions: biological duplicates
[3] = Thermostability by differential scanning fluorimetry; type: physicochemical
Experimental: The relative thermostability of the lysostaphin variants was determined by differential scanning fluorimetry, as previously described (Niesen, et al. (2007) Nat. Protocols 2:2212-2221). Proteins and SYPRO Orange were diluted in PBS (final concentrations of 100 μg/ml and 5× in 20 μl reaction volume, respectively), and fluorescence was quantified at 1-degree increments from 25 to 94° C. using an Applied Biosystems ABI 7500 fast real-time PCR system. The reactions were performed using PCR Plates for Fast Thermocyclers (VWR; Radnor, Pa.). Fluorescence was quantified using the preset TAMRA parameters. Melting temperatures were determined by data analysis with the ‘DSF Analysis v3.0.xlsx’ EXCEL sheet and GraphPad Prism v.6.02 software.

S. aureus cells [4] = experiment: Lytic assay of culture supernatant (SYTOX Green); type: cell-based, Staphylococcus aureus; conditions: single point mutants
Experimental: as §1
The amount of protein used in each assay was estimated from SDS-PAGE gels. Briefly, 10 μl of culture supernatant was run on a SDS-PAGE gel together with standards of 0.5 μg, 0.7 μg, and 1 μg of ssLys in separate lanes. The gel was stained using GELCODE Blue Stain Reagent from Thermo Fisher Scientific (Carlsbad, Calif.) and bands quantified using Quantity Tools from Image Lab 5.1 software (Bio-Rad Laboratories; Hercules, Calif.).

S. aureus SA113 [5] = experiment: MIC assay using P. pastoris culture supernatant (MIC50); type: cell-based, Staphylococcus aureus; conditions: aglycosylated mutants
Experimental: Lysostaphin MIC was determined essentially as described (Zhao, et al. (2014) supra). Briefly, 100 μl aliquots of P. pastoris culture supernatant were serially diluted in TSB. Each well was inoculated with 100 μl of ˜10^6 CFU/ml S. aureus SA113 in TSB. Microplates were incubated at 37° C. for 24 hours. […] MIC50 was quantified by measuring light scattering at 650 nm in a microplate reader.

pooled splenocytes = conditions: mouse, in vivo
From the text: HUMI mice were constructed by surgical transplantation of human bone marrow, liver, and thymus tissues into NOD/SCID/γc^−/− mice (Dartmouth Transgenics & Genetic Constructs Shared Resource) as described (Brainard, et al. (2009) J. Virol. 83:7305-21). All animals were humanized from the same human donor. Mice used experimentally had human lymphocytes as a minimum of 25% of their total peripheral blood leukocytes. Fourteen weeks post-engraftment, 12 female HUMI mice were divided into 3 groups of 4 each and immunized with a single 50 μl subcutaneous injection of 100 μg wild-type LST, 100 μg variant Flex 5, or 100 μg variant Flex 9 in complete Freund's adjuvant (CFA). Two weeks following the immunization, mice were sacrificed and splenocytes were harvested and pooled for each group. Pooled splenocytes (5×10^5/well) were plated in triplicate into 96-well plates with medium containing 5% fetal calf serum, 1-glutamine, antibiotics, and a final concentration of 10 μg/ml LST or variants (or 1% DMSO as a control). […]
In vivo immunogenicity was evaluated using NOD/SCID/γc^−/− mice that had been surgically humanized with human immune cells, liver tissue, and thymus tissue (HUMI mice). […] Cell proliferation was measured by tritiated thymidine uptake at 72 hours.

MRSA strain USA400 [6] = experiment: In vitro inhibitory activity (MIC); type: cell-based, Staphylococcus aureus
From the text: F11, P12 and F13 were screened for in vitro inhibitory activity against MRSA strain USA400 (FIG. 7).

MRSA strain USA400 [7] = experiment: Efficacy of F12 in recurrent systemic MRSA infections; type: in vivo, DR4 HLA transgenic mice; conditions: for # Treated Mice Surviving: 1×10^9 MRSA USA400 i.p., 500 μg enzyme 1 hour later
Experimental: In a similar set of experiments, the immunogenicity and efficacy of variant F12 was compared to wild-type LST in the absence of adjuvant using DR4 HLA transgenic mice. At week 0, mice were challenged with an intraperitoneal injection of 2×10^8 MRSA strain USA400, and 1 hour later the mice were treated with 500 μg wild-type LST or 500 μg variant F12, given as a single bolus subcutaneous injection. Subsequently, mice were challenged weekly with an intraperitoneal injection of 1×10^9 MRSA strain USA400, and treated as above. Antibody titers were measured weekly beginning at week 2. […] Variant F12 rescued all mice from four recurrent, systemic, MRSA infections (Table 24). The substantially lower antibody titers elicited by variant F12 indicate that this variant is […] than wild-type LST.

In the case of “Commercial: Commercial lysostaphin purchased from Sigma, E. coli-produced”, the “% WT Lytic Rate” value (S. aureus cells [1]) is reported as 60 ± 20%, the “MIC Strain 3425-3” value (MRSA strain 3425-3) is reported as 0.03 µg/mL and the “MIC Strain 3425-1” value (S. aureus 3425-1) is reported as 0.04 µg/mL. For the same molecule, the “MIC Strain SA113” value (S. aureus SA113 [2]) was 0.03 µg/mL, the “MIC Strain 6445” value (S. aureus 6445) was 0.03 µg/mL and the Tm ([3]; biological duplicates) was 47.3 °C.

With “Flex 14: lysostaphin variant I41E, S122D; two mutation design shared between rigid and flexible designs” the “% Wild-Type Activity” value (S. aureus cells [1]) was 69%, the MIC (S. aureus SA113 [2]) was 0.0833 µg/mL and the Tm ([3]; SYPRO Orange, PBS) was 58.6 °C.

With Phe38Gly the “activity, % of the wild-type activity” value (S. aureus cells [4]) was 69%.

For Ser124Tyr, the “activity, % of the wild-type activity” value (S. aureus cells [4]) was 16%.

In the case of “Ser126Pro: aglycosylated lysostaphin mutant Ser126Pro, backbone of the designs”, the “activity compared to the wild-type lysostaphin” value (S. aureus SA113 [5]) is reported as “equivalent activity”.

In the case of Thr127Ala, the “activity compared to the wild-type lysostaphin” value (S. aureus SA113 [5]) is reported as “equivalent activity”.

B1: Flex 9: lysostaphin variant N12G, I41E, L83M, K95E, I99Q, N121G, S122D, S124G (protein, UniProt P10547 248-493, looked up, variant N12G I41E L83M K95E I99Q N121G S122D S124G)
Lysostaphin: AATHEHSAQWLGNYKKGYGYGPYPLGINGGMHYGVDFFMNEGTPVKAISSGKIVEAGWSNYGGGNQIGLIENDGVHRQWYMHMSKYNVKVGDYVEAGQQIGWSGSTGYSTAPHLHFQRMVGDFGNSTAQDPMPFLKSAGYGKAGGTVTPTPNTGWKTNKYGTLYKSESASFTPNTDIITRTTGPFRSMPQSGVLKAGQTIHYDEVMKQDGHVWVGYTGNSGQRIYLPVRTWNKSTNTLGVLWGTIK
For B1, the “% Wild-Type Activity” value (S. aureus cells [1]) was 57%, the “% WT Lytic Rate” value (S. aureus cells [1]) was 60 ± 20% and the “MIC Strain 3425-3” value (MRSA strain 3425-3) was 0.2 µg/mL. The “MIC Strain 3425-1” value (S. aureus 3425-1) was 0.2 µg/mL, the MIC (S. aureus SA113 [2]) was 0.1250 µg/mL and the concentration preventing outgrowth (S. aureus SA113 [2]; all four strains (SA113, 6445, 3425-1, 3425-3)) was no more than 200 ng/mL. The “MIC Strain SA113” value (S. aureus SA113 [2]) was 0.04 µg/mL, the “MIC Strain 6445” value (S. aureus 6445) was 0.13 µg/mL and the Tm ([3]; SYPRO Orange, PBS) was 53.0 °C. The Tm ([3]; biological duplicates) was 52.8 °C and the “reduced proliferative response relative to wild-type group” value (pooled splenocytes) was 65%.

B2: Flex 8: lysostaphin variant N12G, I41E, L83M, I99Q, N121G, S122D (protein, UniProt P10547 248-493, looked up, variant N12G I41E L83M I99Q N121G S122D)
Lysostaphin: B1 Lysostaphin with E95K, G124S
With B2 the “% Wild-Type Activity” value (S. aureus cells [1]) was 60%, the MIC (S. aureus SA113 [2]) was 0.2083 µg/mL and the Tm ([3]; SYPRO Orange, PBS) was 52.9 °C.

B3: Flex 6: lysostaphin variant N12G, I41E, I99Q, N121G, S122D (protein, UniProt P10547 248-493, looked up, variant N12G I41E I99Q N121G S122D)
Lysostaphin: B1 Lysostaphin with M83L, E95K, G124S
In the case of B3, the “% Wild-Type Activity” value (S. aureus cells [1]) is reported as 58%, the MIC (S. aureus SA113 [2]) is reported as 0.2083 µg/mL and the Tm ([3]; SYPRO Orange, PBS) is reported as 54.1 °C.

B4: Flex 1: lysostaphin variant I41E, I99Q, S122D (SEQ ID NO:32) (protein)
chain: B1 Lysostaphin with G12N, K46H, M83L, E95K, Q99I, R118T, G121N, S126P
With B4 the “% Wild-Type Activity” value (S. aureus cells [1]) was 63%, the MIC (S. aureus SA113 [2]) was 0.0833 µg/mL and the Tm ([3]; SYPRO Orange, PBS) was 55.4 °C.

B5: F12: variant combining cell wall binding domain mutations with Flex 9 (or derivative) catalytic domain (Table 22) (protein)
chain: B1 Lysostaphin with E95K, S126P, Y160H, S166N, A169G, R186T, N232Q, N236D
In the case of B5, the “MIC activity relative to wild-type LST” value (MRSA strain USA400 [6]) is reported as 25%, the “retained original MIC activity after heating” value (MRSA strain USA400 [6]; 50° C. for 1 hour prior to assay) is reported as 50% and the “recurrent systemic MRSA infections from which mice were rescued” value (MRSA strain USA400 [7]; 500 μg s.c., weekly challenges, no adjuvant) is reported as “four”. The “# Treated Mice Surviving” value (MRSA strain USA400 [7]; Week 1) was 9, the “# Treated Mice Surviving” value (MRSA strain USA400 [7]; Week 2) was 8 and the “# Treated Mice Surviving” value (MRSA strain USA400 [7]; Week 3) was 7. The “# Treated Mice Surviving” value (MRSA strain USA400 [7]; Week 4) was 6.

B6: Flex 10: lysostaphin variant N12G, I41E, N121G, S122D (protein, UniProt P10547 248-493, looked up, variant N12G I41E N121G S122D)
Lysostaphin: B1 Lysostaphin with M83L, E95K, Q99I, G124S
With B6 the “% Wild-Type Activity” value (S. aureus cells [1]) was 62%, the MIC (S. aureus SA113 [2]) was 0.0729 µg/mL and the Tm ([3]; SYPRO Orange, PBS) was 57.5 °C.
